The values below come from US8119354B2, “Cell-free assay product and method of use thereof for measuring activity of frizzled receptors” (Universitaet Konstanz, priority 2007, dated 2012).

Where only a bound is given, the exact number is not on record here.

In one data set the target is T1, hFz1 (Homo sapiens, UniProt Q9UP38).
T1 construct: made in house; host or cells: Escherichia coli (pMAL-p2), membrane fraction
Briefly: Europium-GTP assay of G protein (Go) activation by hFz1 membranes. It counts as biochemical. The note with it: for relative stimulation among the Wnt ligands tested: detergent-solubilized hFz1, GTP incorporation into Go; for activation of the trimeric Go protein (GTP incorporation into Go): detergent-solubilized hFz1-expressing membrane fractions, not control membranes. As for the experimental part: The coding sequence of hFz1 was cloned in-frame into the pMAL-p2 plasmid (New England BioLabs) allowing expression of the protein as an N-terminal fusion with maltose binding protein (MBP). The natural signal sequence of MBP directs the fusion protein through the cytoplasmic membrane. Expression conditions were optimized to allow slow expression to maximize correct hFz1 folding: Expression was performed at 18° C. for 18 h, and in the presence of glucose to minimize the expression of endogenous MBP protein.
Bacteria were harvested by centrifugation, resuspended in PBS (phosphate-buffered saline) and disrupted by French press. The resultant suspension was cleared from the cell debris by low-speed centrifugation, followed by ultracentrifugation to pellet the membranes expressing MBP-hFz1. The membranes were resuspended in PBS supplemented with the protease-inhibitor cocktail (Roche) and frozen in aliquots at −80° C. Control bacteria were transformed with the empty pMAL-p2 vector, induced with IPTG, grown and harvested in parallel with hFz1-transformed bacteria.
HFz1 coding sequence was subcloned into pIRES2-DsRed-Express plasmid (Invitrogen). CHO cells were transiently transfected with lipofectamine following manufacturer's protocol. Transfection efficiency was estimated to be >50%. Two days post-transfection, transfected cells in parallel with control non-transfected cells of a similar cell density were washed, detached with EDTA, pelleted, washed with PBS, and disrupted in a glass-rod homogenizer in a hypotonic buffer (10 mM Hepes pH 7.5). Membrane fraction was prepared and stored as above.
Europium-GTP assay of G protein activation using a time-resolved fluorescence assay was performed. In one well of a 96-well AcroWell plate, 100 μl were mixed containing 4-10 μg/ml membrane protein from the hFz1 expression in bacteria or in CHO, 50 mM Hepes, pH 7.4, 1 mM MgCl2, 50 mM NaCl and 1 mg/ml saponin. Bacterial membranes expressing hFz1 or bacterial control membranes were used at 0.1 mg/ml protein concentration for membrane protein preparation. CHO membranes expressing hFz1 or CHO control membranes were used at 0.01 mg/ml protein concentration. Varying amounts of the following were added: bovine brain Go (Calbiochem), Wnt3a (R&Dsystems), Wnt3a-conditioned or control L-cell medium. Extra GDP was omitted in most experiments. 30 min after incubating this mixture at room temperature on a shaker (100 rpm), Europium-GTP was added, and incubation was continued for 30 more min. Afterwards the content of the wells was filtered and washed using the Multiscreen Vacuum Manifold (Millipore). Amounts of Europium-GTP retained by the membranes were then measured using the Perkin Elmer Victor3 Multilabel Plate Reader.

A short description of data set [1]: Solubility of purified Wnt3A after heparin chromatography. It counts as physicochemical. The note with it: 1×PBS, 1M NaCl, 1% CHAPS, pH7.3. As for the experimental part:
To purify Wnt protein as an example for a typical Fz ligand LWnt3A or LWnt5A cell lines producing and secreting Wnt proteins were used. By growing the cells adherent for 4 days from a 1:10 to 1:20 split high amounts of Wnt-3A were obtained. The medium was DMEM plus 10% FBS, omitting the serum lowers the levels of Wnt protein in the medium. The Wnt containing medium was filtered, detergent was added (Triton X-100 or CHAPS) to a final concentration of 1%, and the medium was refiltered just before applying the material to Blue Sepharose.
Purification by Blue Sepharose fractionation yielded pure Wnt protein, wherein Wnt3A conditioned medium was applied on a Blue Sepharose HP column. Wnt elution from Blue Sepharose was done in a single step from 150 mM to 1.5 M KCl. Approximately, half of the Wnt protein eluted immediately with the salt and the majority of contaminants, but the other half was retained and eluted later in a second pool. This second pool contained much less total protein and consequently contained a higher proportion of Wnt.
Pooled eluted Wnt fractions from Blue Sepharose purification were concentrated by […] to 5 or 10 ml volume using Centricon or Amicon Ultra 30 ultrafiltration device (Amicon) depending on size of […] column. […]

Another data set deals with T2, hFz7 (Homo sapiens, UniProt O75084).
T2 construct: made in house
The experiment in a line: in vitro Go activation assay with bacterially expressed hFz7. It is filed as biochemical. To be noted: detergent-solubilized bacterially expressed hFz7. The text has this:
(§1) The results obtained with three human Frizzled receptors (hFz1, hFz6, hFz7) and four Wnt ligands (Wnt3a, Wnt5a, Wnt5b, and Wnt7a) allow to compose a table of pair-wise Wnt-Frizzled activations using Go stimulation as the read-out (FIG. 5C).
(§2) Detergent-solubilized hFz6 and Fz7 stimulated GTP incorporation into Go in the presence of different Wnt ligands. Data are presented in FIG. 5C as summary of the capacity of the tested Wnt ligands to stimulate the tested Frizzled receptors to activate Go in vitro. […] Go activation by the Wnt-Frizzled pairs is denoted (in the order of the decreasing activation capacity) as “+++”, “++”, “+”, “+/−”, and “−” using as criteria the lowest Go-activating Wnt concentration as well as the maximal Go activation level achieved by any Wnt concentration.
(§3) Europium-GTP assay of G protein activation using a time-resolved fluorescence assay was performed. In one well of a 96-well AcroWell plate, 100 μl were mixed containing 4-10 μg/ml membrane protein from the hFz1 expression in bacteria or in CHO, 50 mM Hepes, pH 7.4, 1 mM MgCl2, 50 mM NaCl and 1 mg/ml saponin. Bacterial membranes expressing hFz1 or bacterial control membranes were used at 0.1 mg/ml protein concentration for membrane protein preparation. […] Amounts of Europium-GTP retained by the membranes were then measured using the Perkin Elmer Victor3 Multilabel Plate Reader.

The target of another data set is T3, hFz6 (Homo sapiens, UniProt O60353).
T3 construct: made in house
Briefly: in vitro Go activation assay with bacterially expressed hFz6. It is filed as biochemical. The note with it: detergent-solubilized bacterially expressed hFz6.
Description: as §1, §2, §3

T1 sequence (Q9UP38 70-647): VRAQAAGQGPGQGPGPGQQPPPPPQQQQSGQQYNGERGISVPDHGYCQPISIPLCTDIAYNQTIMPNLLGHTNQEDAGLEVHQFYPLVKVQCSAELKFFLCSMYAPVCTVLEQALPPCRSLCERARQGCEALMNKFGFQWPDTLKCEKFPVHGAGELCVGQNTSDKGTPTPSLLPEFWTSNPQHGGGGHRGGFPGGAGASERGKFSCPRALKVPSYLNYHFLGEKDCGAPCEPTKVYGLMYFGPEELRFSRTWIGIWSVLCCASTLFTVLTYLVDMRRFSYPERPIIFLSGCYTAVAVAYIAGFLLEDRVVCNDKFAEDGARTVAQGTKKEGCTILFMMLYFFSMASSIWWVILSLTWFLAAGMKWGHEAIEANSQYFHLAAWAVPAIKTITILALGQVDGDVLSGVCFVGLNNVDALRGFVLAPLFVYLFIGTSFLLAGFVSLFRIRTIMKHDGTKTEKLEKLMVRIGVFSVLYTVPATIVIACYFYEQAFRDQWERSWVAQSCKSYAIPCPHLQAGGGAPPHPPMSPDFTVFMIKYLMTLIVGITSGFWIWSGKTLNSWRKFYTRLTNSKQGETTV

Turning to Wnt3a, at hFz1 (E. coli-produced hFZ1 membranes, 0.3 μg/ml purified Wnt3a), the “stimulation of hFz1 activity towards Go” value was “stimulated”. In addition, the “relative stimulation among the Wnt ligands tested” value on hFz1 is on record as “most active”. Moreover, the “solubility and activity maintained at a maximum concentration” value in data set [1] was not above 100 µg/mL.
With fMDGCEL [reference compound], at hFz1 (E. coli produced hFz1 membranes, Wnt5a mimetic peptide), the “stimulation of hFz1 activity towards Go” value is listed as “can be stimulated”.

B1: Wnt5a: Wnt ligand (secreted Wnt family protein), frizzled receptor agonist (protein, UniProt P41221 62-380, looked up)
Protein Wnt-5a: IIGAQPLCSQLAGLSQGQKKLCHLYQDHMQYIGEGAKTGIKECQYQFRHRRWNCSTVDNTSVFGRVMQIGSRETAFTYAVSAAGVVNAMSRACREGELSTCGCSRAARPKDLPRDWLWGGCGDNIDYGYRFAKEFVDARERERIHAKGSYESARILMNLHNNEAGRRTVYNLADVACKCHGVSGSCSLKTCWLQLADFRKVGDALKEKYDSAAAMRLNSRGKLVQVNSRFNSPTTQDLVYIDPSPDYCVRNESTGSLGTQGRLCNKTSEGMDGCELMCCGRGYDQFKTVQTERCHCKFHWCCYVKCKKCTEIVDQFVCK
B1: in the data set with hFz1, the “activation of the trimeric Go protein (GTP incorporation into Go)” value (shortened to “activation of the trimeric Go protein”) is listed as “concentration-dependent activation” and the “relative stimulation among the Wnt ligands tested” value is “most active”. Besides, the “Go activation by hFz7 upon addition of ligand” value with hFz7 is given as “mostly stimulated”.

B2: Wnt7a: Wnt ligand (secreted Wnt family protein), frizzled receptor agonist (protein, UniProt O00755 32-349, looked up)
Protein Wnt-7a: LGASIICNKIPGLAPRQRAICQSRPDAIIVIGEGSQMGLDECQFQFRNGRWNCSALGERTVFGKELKVGSREAAFTYAIIAAGVAHAITAACTQGNLSDCGCDKEKQGQYHRDEGWKWGGCSADIRYGIGFAKVFVDAREIKQNARTLMNLHNNEAGRKILEENMKLECKCHGVSGSCTTKTCWTTLPQFRELGYVLKDKYNEAVHVEPVRASRNKRPTFLKIKKPLSYRKPMDTDLVYIEKSPNYCEEDPVTGSVGTQGRACNKTAPQASGCDLMCCGRGYNTHQYARVWQCNCKFHWCCYVKCNTCSERTEMYTCK
For the molecule B2, in the data set with hFz1, the “activation of the trimeric Go protein” value is “concentration-dependent activation” and the “relative stimulation among the Wnt ligands tested” value is “more modest stimulation”. In addition, the “Go activation by hFz6 upon addition of ligand” value with hFz6 was “activated Go”.

B3: Wnt5b: Wnt ligand (secreted Wnt family protein), frizzled receptor agonist (protein, UniProt Q9H1J7 18-359, looked up)
Protein Wnt-5b: QLLTDANSWWSLALNPVQRPEMFIIGAQPVCSQLPGLSPGQRKLCQLYQEHMAYIGEGAKTGIKECQHQFRQRRWNCSTADNASVFGRVMQIGSRETAFTHAVSAAGVVNAISRACREGELSTCGCSRTARPKDLPRDWLWGGCGDNVEYGYRFAKEFVDAREREKNFAKGSEEQGRVLMNLQNNEAGRRAVYKMADVACKCHGVSGSCSLKTCWLQLAEFRKVGDRLKEKYDSAAAMRVTRKGRLELVNSRFTQPTPEDLVYVDPSPDYCLRNESTGSLGTQGRLCNKTSEGMDGCELMCCGRGYNQFKSVQVERCHCKFHWCCFVRCKKCTEIVDQYICK
On to B3, for which, in the data set with hFz1, the “activation of the trimeric Go protein” value is “concentration-dependent activation” and the “relative stimulation among the Wnt ligands tested” value is reported as “more modest stimulation”.
